One block for each binder: values may come before it. Square brackets hold non-standard residues; d marks the D form. Ends that are not written are not given here. pS = N[C@@H](COP(=O)(O)O)C(=O)O
B3: fluorescently labeled phosphopeptide VNKpSYFND-fluorescein (peptide)
peptide: VNK[pS]YFND-fluorescein

Columns and labels:
[1] = target: B3; assay: fluorescence polarisation
[2] = target: BRCA1 BRCT domains, wild type (residues 1646-1863) (UniProt P38398 1646-1863); assay: fluorescence polarisation

B1: BRCA1 BRCT A1843P (domain or fragment, UniProt P38398 1646-1863, looked up)
chain: VNKRMSMVVSGLTPEEFMLVYKFARKHHITLTNLITEETTHVVMKTDAEFVCERTLKYFLGIAGGKWVVSYFWVTQSIKERKMLNEHDFEVRGDVVNGRNHQGPKRARESQDRKIFRGLEICCYGPFTNMPTDQLEWMVQLCGASVVKELSSFTLGTGVHPIVVVQPDAWTEDNGFHAIGQMCEAPVVTREWVLDSVPLYQCQELDTYLIPQIPHSHY
- fold reduction in affinity against wild type [1]: ≤ 1.5 fold

B2: BRCA1 BRCT G1706A (domain or fragment, UniProt P38398 1646-1863, looked up)
chain: VNKRMSMVVSGLTPEEFMLVYKFARKHHITLTNLITEETTHVVMKTDAEFVCERTLKYFLAIAGGKWVVSYFWVTQSIKERKMLNEHDFEVRGDVVNGRNHQGPKRARESQDRKIFRGLEICCYGPFTNMPTDQLEWMVQLCGASVVKELSSFTLGTGVHPIVVVQPDAWTEDNGFHAIGQMCEAPVVTREWVLDSVALYQCQELDTYLIPQIPHSHY
- fold reduction in affinity against wild type [1]: ~1.4 fold

Binder: B3
- Kd [2]: 112 ± 6 nM

B7: BRCA1 BRCT D1778N (domain or fragment, UniProt P38398 1646-1863, looked up)
chain: VNKRMSMVVSGLTPEEFMLVYKFARKHHITLTNLITEETTHVVMKTDAEFVCERTLKYFLGIAGGKWVVSYFWVTQSIKERKMLNEHDFEVRGDVVNGRNHQGPKRARESQDRKIFRGLEICCYGPFTNMPTNQLEWMVQLCGASVVKELSSFTLGTGVHPIVVVQPDAWTEDNGFHAIGQMCEAPVVTREWVLDSVALYQCQELDTYLIPQIPHSHY
- fold increase in affinity against wild type [1]: ~1.5 fold

B8: BRCA1 BRCT M1652I (domain or fragment, UniProt P38398 1646-1863, looked up)
chain: VNKRMSIVVSGLTPEEFMLVYKFARKHHITLTNLITEETTHVVMKTDAEFVCERTLKYFLGIAGGKWVVSYFWVTQSIKERKMLNEHDFEVRGDVVNGRNHQGPKRARESQDRKIFRGLEICCYGPFTNMPTDQLEWMVQLCGASVVKELSSFTLGTGVHPIVVVQPDAWTEDNGFHAIGQMCEAPVVTREWVLDSVALYQCQELDTYLIPQIPHSHY
- fold reduction in affinity against wild type [1]: ~1.4 fold

B9: BRCA1 BRCT G1788D (domain or fragment, UniProt P38398 1646-1863, looked up)
chain: VNKRMSMVVSGLTPEEFMLVYKFARKHHITLTNLITEETTHVVMKTDAEFVCERTLKYFLGIAGGKWVVSYFWVTQSIKERKMLNEHDFEVRGDVVNGRNHQGPKRARESQDRKIFRGLEICCYGPFTNMPTDQLEWMVQLCDASVVKELSSFTLGTGVHPIVVVQPDAWTEDNGFHAIGQMCEAPVVTREWVLDSVALYQCQELDTYLIPQIPHSHY
- fold reduction in affinity against wild type [1]: ≤ 1.5 fold

B10: BRCA1 BRCT L1664P (domain or fragment, UniProt P38398 1646-1863, looked up)
chain: VNKRMSMVVSGLTPEEFMPVYKFARKHHITLTNLITEETTHVVMKTDAEFVCERTLKYFLGIAGGKWVVSYFWVTQSIKERKMLNEHDFEVRGDVVNGRNHQGPKRARESQDRKIFRGLEICCYGPFTNMPTDQLEWMVQLCGASVVKELSSFTLGTGVHPIVVVQPDAWTEDNGFHAIGQMCEAPVVTREWVLDSVALYQCQELDTYLIPQIPHSHY
- fold reduction in affinity against wild type [1]: ~1.4 fold

B16: BRCA1 BRCT D1692N (domain or fragment, UniProt P38398 1646-1863, looked up)
chain: VNKRMSMVVSGLTPEEFMLVYKFARKHHITLTNLITEETTHVVMKTNAEFVCERTLKYFLGIAGGKWVVSYFWVTQSIKERKMLNEHDFEVRGDVVNGRNHQGPKRARESQDRKIFRGLEICCYGPFTNMPTDQLEWMVQLCGASVVKELSSFTLGTGVHPIVVVQPDAWTEDNGFHAIGQMCEAPVVTREWVLDSVALYQCQELDTYLIPQIPHSHY
- fold reduction in affinity against wild type [1]: ~1.4 fold

B17: BRCA1 BRCT G1788V (domain or fragment, UniProt P38398 1646-1863, looked up)
chain: VNKRMSMVVSGLTPEEFMLVYKFARKHHITLTNLITEETTHVVMKTDAEFVCERTLKYFLGIAGGKWVVSYFWVTQSIKERKMLNEHDFEVRGDVVNGRNHQGPKRARESQDRKIFRGLEICCYGPFTNMPTDQLEWMVQLCVASVVKELSSFTLGTGVHPIVVVQPDAWTEDNGFHAIGQMCEAPVVTREWVLDSVALYQCQELDTYLIPQIPHSHY
- fold reduction in affinity against wild type [1]: ~1.4 fold

Other lines, results leading:

- fold reduction in affinity against wild type [1]: ~1.4 fold
B4: BRCA1 BRCT T1773S (domain or fragment, UniProt P38398 1646-1863, looked up)
chain: VNKRMSMVVSGLTPEEFMLVYKFARKHHITLTNLITEETTHVVMKTDAEFVCERTLKYFLGIAGGKWVVSYFWVTQSIKERKMLNEHDFEVRGDVVNGRNHQGPKRARESQDRKIFRGLEICCYGPFSNMPTDQLEWMVQLCGASVVKELSSFTLGTGVHPIVVVQPDAWTEDNGFHAIGQMCEAPVVTREWVLDSVALYQCQELDTYLIPQIPHSHY

- fold reduction in affinity against wild type [1]: ≤ 1.5 fold
B5: BRCA1 BRCT V1808A (domain or fragment, UniProt P38398 1646-1863, looked up)
chain: VNKRMSMVVSGLTPEEFMLVYKFARKHHITLTNLITEETTHVVMKTDAEFVCERTLKYFLGIAGGKWVVSYFWVTQSIKERKMLNEHDFEVRGDVVNGRNHQGPKRARESQDRKIFRGLEICCYGPFTNMPTDQLEWMVQLCGASVVKELSSFTLGTGVHPIAVVQPDAWTEDNGFHAIGQMCEAPVVTREWVLDSVALYQCQELDTYLIPQIPHSHY

- fold reduction in affinity against wild type [1]: ~100 fold
B6: BRCA1 BRCT R1699L (domain or fragment, UniProt P38398 1646-1863, looked up)
chain: VNKRMSMVVSGLTPEEFMLVYKFARKHHITLTNLITEETTHVVMKTDAEFVCELTLKYFLGIAGGKWVVSYFWVTQSIKERKMLNEHDFEVRGDVVNGRNHQGPKRARESQDRKIFRGLEICCYGPFTNMPTDQLEWMVQLCGASVVKELSSFTLGTGVHPIVVVQPDAWTEDNGFHAIGQMCEAPVVTREWVLDSVALYQCQELDTYLIPQIPHSHY

- fold reduction in affinity against wild type [1]: ~1.4 fold
B11: BRCA1 BRCT M1775R (domain or fragment, UniProt P38398 1646-1863, looked up)
chain: VNKRMSMVVSGLTPEEFMLVYKFARKHHITLTNLITEETTHVVMKTDAEFVCERTLKYFLGIAGGKWVVSYFWVTQSIKERKMLNEHDFEVRGDVVNGRNHQGPKRARESQDRKIFRGLEICCYGPFTNRPTDQLEWMVQLCGASVVKELSSFTLGTGVHPIVVVQPDAWTEDNGFHAIGQMCEAPVVTREWVLDSVALYQCQELDTYLIPQIPHSHY

- fold reduction in affinity against wild type [1]: ~300 fold
B12: BRCA1 BRCT R1699W (domain or fragment, UniProt P38398 1646-1863, looked up)
chain: VNKRMSMVVSGLTPEEFMLVYKFARKHHITLTNLITEETTHVVMKTDAEFVCEWTLKYFLGIAGGKWVVSYFWVTQSIKERKMLNEHDFEVRGDVVNGRNHQGPKRARESQDRKIFRGLEICCYGPFTNMPTDQLEWMVQLCGASVVKELSSFTLGTGVHPIVVVQPDAWTEDNGFHAIGQMCEAPVVTREWVLDSVALYQCQELDTYLIPQIPHSHY

- fold reduction in affinity against wild type [1]: ~1.4 fold
B13: BRCA1 BRCT V1665M (domain or fragment, UniProt P38398 1646-1863, looked up)
chain: VNKRMSMVVSGLTPEEFMLMYKFARKHHITLTNLITEETTHVVMKTDAEFVCERTLKYFLGIAGGKWVVSYFWVTQSIKERKMLNEHDFEVRGDVVNGRNHQGPKRARESQDRKIFRGLEICCYGPFTNMPTDQLEWMVQLCGASVVKELSSFTLGTGVHPIVVVQPDAWTEDNGFHAIGQMCEAPVVTREWVLDSVALYQCQELDTYLIPQIPHSHY

- fold reduction in affinity against wild type [1]: ~100 fold
B14: BRCA1 BRCT R1699Q (domain or fragment, UniProt P38398 1646-1863, looked up)
chain: VNKRMSMVVSGLTPEEFMLVYKFARKHHITLTNLITEETTHVVMKTDAEFVCEQTLKYFLGIAGGKWVVSYFWVTQSIKERKMLNEHDFEVRGDVVNGRNHQGPKRARESQDRKIFRGLEICCYGPFTNMPTDQLEWMVQLCGASVVKELSSFTLGTGVHPIVVVQPDAWTEDNGFHAIGQMCEAPVVTREWVLDSVALYQCQELDTYLIPQIPHSHY

- fold reduction in affinity against wild type [1]: ~1.4 fold
B15: BRCA1 BRCT R1751Q (domain or fragment, UniProt P38398 1646-1863, looked up)
chain: VNKRMSMVVSGLTPEEFMLVYKFARKHHITLTNLITEETTHVVMKTDAEFVCERTLKYFLGIAGGKWVVSYFWVTQSIKERKMLNEHDFEVRGDVVNGRNHQGPKQARESQDRKIFRGLEICCYGPFTNMPTDQLEWMVQLCGASVVKELSSFTLGTGVHPIVVVQPDAWTEDNGFHAIGQMCEAPVVTREWVLDSVALYQCQELDTYLIPQIPHSHY

- fold reduction in affinity against wild type [1]: ≤ 1.5 fold
B18: BRCA1 BRCT M1783T (domain or fragment, UniProt P38398 1646-1863, looked up)
chain: VNKRMSMVVSGLTPEEFMLVYKFARKHHITLTNLITEETTHVVMKTDAEFVCERTLKYFLGIAGGKWVVSYFWVTQSIKERKMLNEHDFEVRGDVVNGRNHQGPKRARESQDRKIFRGLEICCYGPFTNMPTDQLEWTVQLCGASVVKELSSFTLGTGVHPIVVVQPDAWTEDNGFHAIGQMCEAPVVTREWVLDSVALYQCQELDTYLIPQIPHSHY

- fold reduction in affinity against wild type [1]: ~5 fold
B19: BRCA1 BRCT V1736A (domain or fragment, UniProt P38398 1646-1863, looked up)
chain: VNKRMSMVVSGLTPEEFMLVYKFARKHHITLTNLITEETTHVVMKTDAEFVCERTLKYFLGIAGGKWVVSYFWVTQSIKERKMLNEHDFEARGDVVNGRNHQGPKRARESQDRKIFRGLEICCYGPFTNMPTDQLEWMVQLCGASVVKELSSFTLGTGVHPIVVVQPDAWTEDNGFHAIGQMCEAPVVTREWVLDSVALYQCQELDTYLIPQIPHSHY

From paper PMC2888420 (The Journal of Biological Chemistry, 2010)
